The DeepSol protein solubility set

Assay: soluble on expression in E. coli; label from the status in PepcDB or PDB records

Soluble on expression in E. coli, not soluble:
MGSDKIHHHHHHMVSKLLALEAYPKLKDIDFRLLRAVELNMRHHKWVPLEDIARFARMDLESASYRLGKLDKLGLVIRRSDIGYIGYQLTIHGYDALAIRAFAKKGVIEAISTTHIGVGKDADVYVAITPQGEKVAIKFNRIGERTSARKAYYHSDVFADKHHKSWLYVSRLIAKKEHEALVLLSSFAKVPKPIAWNRHAIVMEFIDGVELAELRDTDLTKEEAEEILGKVLDEYEKIVKFGIVHGDMSEFNIVITKDNDILIIDWAQYLTCANPESLGLLKRDISVLLNAFRRRWGVKRDFEEEWKRFYEAWQIGRREKEES, MGHHHHHHSHMSTKVPIYLKRGSRKGKKEKLRDLLSSDMISPPLGDFRHTIHIGSGGGSDMFGDISFLQGKFHLLPGTMVEGPEEDGTFDLPFQFTRTATVVGRELPDGPSPLLKNAISLPVIGGPQALTLPTAQAPPKPPRLHLETPQPSPQEGGSVDIWRIPETGSPNSGLTPESGAEEPFLSNASSLLSLHVDLGPSILDDVLQIMDQDLDSMQIPT, MNVTYLHDEDLDFLQHCSEEQLADFARLLTHNEKGKARLSSVLSHNELFKAMEGHPEQHRRNWQLIAGEFQHYGGDSIANKLRGHGKQYRAILLDVAKRLKLKADKSMSTFEIEQQLLEHFLRHTWQKMDAAHKQEFLQAVDAKVSELEELLPLLMKDRSLAKGVSHLLSTQLTRILRTHAAMSILGHGLLRGAGLGGPVGAALNGVKAMSGSAYRVTIPAVLQIACLRRMMAAVQA, MGSDKIHHHHHHMEENYRRYPIGIQNFEQLRNRNCVYVDKTELVYRLANTDSVYFLSRPRRFGKSLLVSTLEAYFQGKKDLFKGLAMERLEKDWNVYPVFHIDFSLTKYTTLFDLQEQLNLFLLRCEKVYGAEKEEKTPAARLQGMIRRAYEQTGLPVVVLIDEYDAPLLDSNSNIPLQQELRNELRKFFSPLKGLGQYLRFLFITGISKFSQMSIFSELNNLKNISMRDDFSAICGITERELLDELRPDIERMALANGETYEAACAHLKRQYDGYHFSKHCEDIYNPFSLFNAFDAKEYKNFWFSTGTPTFLIDLLQETDFDVRQLEGVEATDEQFDAPTERVTSPIPVLYQSGYLTIKGYDPEFQVYRLAYPNGEVRKGFIESLLPAYLELPGQSSTFYVVSFIRDLRKGDIESCLERTRSFFASIPNDLENKTEKHYQTIFYLLFRLMGMYVDSEVKSAVGRADVVIKMQDAIYVLEFKYDGTAREALAQINSRLYAVPYRKDGRRIVKVGINFDSATRTIGDWVIEVEDTVDNL, MSLDRVTISHMADALGVTKSTVSRAMNGYPDISEATQLRVKRMAEKMGYQPLSHAQAIKTGRARSLGLVLQFSDHDAQRPFLAEFLAGLSAGAHTDGWTLTVAAADGHDELIETFRAILRDGKADGFILPRAMSTDPRVYLLRDAGVPFVLFGRQDKEEGCAWFDVLGEEAMCDAVLHLATLGHRRIGFINGGLQYAYARLRAAGFADGMQIAGLEMDDSLIADDAMTMESGAVAAARILDTTNPPTALVCAVDFAALGAYRAAADRGIIIGRDLSIIGYDGIPEGAFAHPPLTTFAVDNRAAGFALATLLIQRIKGEPLETLRRLVPATFVERASTGEGHHHHHH, MCGRFAQAQTREEYLAYLADEADRNIAYDPQPIGRYNVAPGTKVLLLSERDEQLHLDPVIWGYAPGWWDKAPLINARVATAASSRMFKPLWQHGRAICFADRWFEWKKEGDKKQPYFIHRKDGKPIFMAAIGSTPFERGDEAEGFLIVTSAADKGLVDIHDRRPLALTPETARVWMRQFLEPHSKSITYRVIPALTRPMMRKDTNPCQLEHHHHHH, MSKILGDGHVRKTVDLPDSALRLNYEKKYYEPENGDHLIFSAQLQNGRYSALTAIKPTDLLQVYGSLSYLDEQLKFGHVSIHGRTAKVFVPFSTRTTNGACWYGQGAYIDKPYLIYIFRQEEAHGCKFVAWAIYDDTRKTTSVPPTPTDIQNTSHMKKLGPPTAVQRQSDHQSVEFVQAQSGVIYDISDNYVISVTSPTCQNVEFAPTLYESWMRPGRFITFDGRRVSDVKTSKLMGSNPEDMGSIYPIRKLTPLTITISAIMNKVSHGKAGWAWNDHVGRIYIPWNSTDRYMQASKPLPFTPVHLEIAYNGKHDDIPWVACGSSLVEEQEYDQIVDENSRMLKTEDNWKIQSVVDGPENPSIFLAKFDEKGLKRTAFAKVIDLNSGNIPPTGTLVRITYYAQERHGRHAMRCVLVTTMEKVERFPKVHSIINGSGEKHFPMMYEQPIPKKQVIPPTPVQRVQAAPPPAKNCWNLKNLGSPAAQPSVQDFPTVTGDEDDNIFVEETNTALPPPGFVPPGLVAPPGLPPPPGLPAVPLSTDLAYDFKMTSSIPMTNGLGHLRLGSVWSGTPVEAKQEEPLHYFQQQDNFLGSSFGPISSTFSADNFFTELTASISQPSTSSVVNSGPISDLRNTQSEASSPGLKSDGNEPVEETNCWSSLEAATNGNNPFNSSFSYGFPHMDLPIYQKMMPNANDILKPMPLVEEELKPATSATHSEADSCTCGTEQLIWDLWQNPHFIAAFAASDPETFKRVDAKRKLFSLSNHR, MTKTRRRGAELENAIYQAARDILNQDGLEQLTFANVAEQAGTSKPVIYRRWRSPLELAIAAIQDQIITENHGQLDEVSLTGQTLSEDLFQVLKRFTVSINTFNQALVITWFHHLDQQANPEVKDLLNAVKKIDAHAIERVCQRAQQRGELRTGTLSCDLQLMPFDWLRYRAFANEPITDATLHLLVDDLLVPAYQHALG, MGSDKIHHHHHHMAVRPYWKGYLKLSLVTCPVQMMPATSESEKVRFHTLNRETQNRVVSHYVDSVTGKEVKDEDEVKGYQRGENEYIILEDEELENVALDSTKTIDISTFTPRDSVEWIWLDTPYYLSPNDPVGQEAFSVIRDAMEAQNMVGISRLVISRRERAVMLEPRGKGIVLWTLRYGDEVRDEDTYFAGIDDEETADREMMPLVQQLIKKQTKHWDAKMVIDPVQERLLDIIAAKKKALKKSARAKPSAPAKSTPSNVINIMDALKKSVAAENRSSK, MEEVVRFECRDSNLEIYVVQPGERLSIFGSCSFLCLAGNASINDYNLPAVSCESSNFMKISAPQRMDVPAILQVFKSGPSYKHARLKFRLKEVAPKNYEKIMEMIGTTEPSVFIFSKILDFAEETVSGVVSNFLIHSSIQKQIILPPHFFISRDDFIIYPQQQEAQLKSQMNRLNKLRNDGQRTTILPIGHKGAGKSNLMRSLVNRCLSNGYEHVYVLDCDIGQSEFTPCGCLSLTKVTSPILGKPHGHQRASFENSFFYGDITVRDINLYMDIFERLFNKFKVISEPGSVCIINSMGWVTDEGAEILDGITRVTDPELFVEIFRDQTEARYQFLNRAEHNIVEIFANNSIGVIGLPPQKRLPAALIRELTIVGYFSSRLPRPSLASFPKVAPYKLRFENVTICVPVDLLVEDSHVFSSINTQIMALCINNTDLKPRKLYGKDDLPSICVIDGNSPALQCIGFGIIRGVSVEERIIFVVTPVDLLKLEEPPVLVRGMRIQTPTMFYTADPYNRCPYVLNDLEQGNSDNTLDGLYQPSVNTTQFKRSRRF

Soluble on expression in E. coli, soluble:
MFNRIMVPVDGSKGAVKALEKGVGLQQLTGAELYILCVFKHHSLLEASLSMARPEQLDIPDDALKDYATEIAVQAKTRATELGVPADKVRAFVKGGRPSRTIVRFARKRECDLVVIGAQGTNGDKSLLLGSVAQRVAGSAHCPVLVV, MSVATGSSETAGGASGGGARVFFQSPRGGAGGSPGSSSGSGSSREDSAPVATAAAAGQVQQQQQRRHQQGKVTVKYDRKELRKRLVLEEWIVEQLGQLYGCEEEEMPEVEIDIDDLLDADSDEERASKLQEALVDCYKPTEEFIKELLSRIRGMRKLSPPQKKSV, MSLSKTRTFLFDLYGVLIKEHGAAQFERVARAVGEPSKNDKLHEVYESLRLDLDAGRVSEVNYWNQIKLLVGLEFLDIQEVIAADYRGLYERDQDMVDYVLSLKAKGHRIGILSNIPEGLAKLLKEHNSEWLDQLDAVTLSCDIGAAKPEPKSFHVALEALGEKAEDVTFIDDRVRNIEAAREEGLSTIHFTGLDSLKESIQEGHHHHHH, MATAVKLSGISKTFGSLKANDNVSLSIEAGSIHALVGENGAGKSTLSNIIYGLLHPDSGTIEIDGKAVKFSSVRQAIEAGIGMVHQHFMLVPTLSVTENIILGKEESRLALPTRRIGKEIRQLSQQHGLEVDPDALVSTLSVGEQQRVEILKLLYRRAKLLILDEPTAVLSPPETARLFATLRSLAAEGRTVLLITHKLDEVLTVSDSVSVMRKGSLVGTVPTTSTSKEDLARMMVGRDVLLRTANAPQTPGKTVLSIDKLTYRSPLGIDKLTGLTLHVRAGEIYGIAGVEGNGQSELLSLLWGTFDRSGKTGGSITIDAQETLGKNPSEIAALGVSMIPEDRHKSAIIAEYGIEENLILGRHREKAFHRGIGFDRDAVHKNATAMIEQYDIRCAAGTNPPIASLSGGNQQKIVVAREMERPQLKLLVLAQPTRGVDIGAIEQIHKRIIDARKSGLAILLISSELEEIVALSTRIGCLYKGAIRHEFSETEVWRGRDHESGFEKEIGMHITLEHHHHHH, PEITGQVSLPPGKRTNLRKTGSERIAHGMRVKFNPLPLALLLDSSLEGEFDLVQRIIYEVDDPSLPNDEGITALHNAVCAGHTEIVKFLVQFGVNVNAADSDGWTPLHCAASCNNVQVCKFLVESGAAVFAMTYSDMQTAADKCEEMEEGYTQCSQFLYGVQEKMGIMNKGVIYALWDYEPQNDDELPMKEGDCMTIIHREDEDEIEWWWARLNDKEGYVPRNLLGLYPRIKPRQRSLA, MGSDKIHHHHHHMKILITGANGQLGREIQKQLKGKNVEVIPTDVQDLDITNVLAVNKFFNEKKPNVVINCAAHTAVDKCEEQYDLAYKINAIGPKNLAAAAYSVGAEIVQISTDYVFDGEAKEPITEFDEVNPQSAYGKTKLEGENFVKALNPKYYIVRTAWLYGDGNNFVKTMINLGKTHDELKVVHDQVGTPTSTVDLARVVLKVIDEKNYGTFHCTCKGICSWYDFAVEIFRLTGIDVKVTPCTTEEFPRPAKRPKYSVLRNYMLELTTGDITREWKESLKEYIDLLQM, MSLENICDMNNKVKVAVLDTGIDKEHDYLKDNLVGGIAFECMHDYIFISDKFDDEDGHGTACASIIKKEYEDVELFVIKILRKDGITNIKVLEEALRYLLDTNIRLINLSLSVIGVESVKGLFEVCYELFRKGKIIVCSLANDFDLSYPAMFNNVIGVRGFTLDGDDSFWYNKKYDVQCVMDSNSYISCDINNSYRLPPKCNSYLSAKLTGKIAKILSEKPGITISDLNDKLESLATRNHWDSCDFDECSRIVNFKLDLYDKENALFEGHHHHHH, MGSHHHHHHMGQSVEVEILLNDAESRKRAEHKTEDGKKEKYFLFYDGETVSGKVSLSLKNPNKRLEHQGIKIEFIGQIELYYDRGNHHEFVSLVKDLARPGEITQSQAFDFEFTHVEKPYESYTGQNVKLRYFLRATISRRLNDVVKEMDIVVHTLSTYPELNSSIKMEVGIEDCLHIEFEYNKSKYHLKDVIVGKIYFLSVEIKIKHMEIDIIKRETTGTGPNVYHENDTIAKYEIMDGAPVRGSSIPIRLFLAGYELTPTMRDINKKFSVRYYLNLVLIDEEERRYFKQQEVVLWRKGDIVRKSMSHQAAIASQRFEGTTSLGEVRTPGQLSDNNSRQ, GSSSGGGSSSSGTSSAFSSYFNNKVGIPQEHVDHDDFDANQLLNKINE
